For two substances, stoichiometry N results are on record in article doi:10.1101/2021.04.23.441069.

The target of assay [1] is NyxA (purified, not held on the resin) (Brucella abortus 2308) (UniProt Q2YPD9). Put plainly: […].
Assay [2] deals with NyxB (untagged, His tag cleaved with TEV) (Brucella abortus 2308) (UniProt Q2YPZ9). Put plainly: […].

As usually defined, the stoichiometry N is the number of molecules, sites or subunits per partner or assembly. With “NyxA (purified, not held on the resin) (from UniProt Q2YPD9 1-129) (natural protein)”, in assay [1], the stoichiometry N was found to be 2.
Turning to “NyxB (untagged, His tag cleaved with TEV) (from UniProt Q2YPZ9 1-134) (natural protein)”, in assay [2], the stoichiometry N is 2.
